Positions count from the first letter of the chain named. Values belong to the molecule of their own block, whether it stands above or below them.
Experiments:
[1] = target: T1, native PRLR expressing T47D cells (Homo sapiens, UniProt P16471); experiment: FACS cell surface binding
T1 construct: a native PRLR expressing cell line (T47D); endogenous in cells; host or cells: T47D
T1 sequence (P16471 25-622): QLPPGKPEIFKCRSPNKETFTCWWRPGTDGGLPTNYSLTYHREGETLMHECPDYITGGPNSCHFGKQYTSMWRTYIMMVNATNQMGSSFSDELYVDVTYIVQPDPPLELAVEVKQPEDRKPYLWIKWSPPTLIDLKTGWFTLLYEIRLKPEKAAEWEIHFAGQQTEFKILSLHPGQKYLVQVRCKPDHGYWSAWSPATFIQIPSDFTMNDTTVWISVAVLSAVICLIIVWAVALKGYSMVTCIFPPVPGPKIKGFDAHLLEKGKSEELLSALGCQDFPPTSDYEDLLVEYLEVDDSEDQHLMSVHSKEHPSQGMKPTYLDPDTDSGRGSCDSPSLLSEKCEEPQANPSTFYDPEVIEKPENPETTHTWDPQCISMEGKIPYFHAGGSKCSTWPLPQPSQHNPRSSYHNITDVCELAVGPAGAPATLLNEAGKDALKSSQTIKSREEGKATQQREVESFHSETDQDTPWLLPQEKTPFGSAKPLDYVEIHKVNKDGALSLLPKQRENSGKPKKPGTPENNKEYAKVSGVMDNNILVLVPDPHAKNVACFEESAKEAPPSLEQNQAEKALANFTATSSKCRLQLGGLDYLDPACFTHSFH
Procedure: (§1) Cell surface expression of PRLR on 293/hPRLR cells was assessed via FACS analysis. Briefly, 1×10^5 cells were incubated with 10 μg/ml of Control antibody I, or an isotype control for 30 min on ice in antibody dilution buffer. Following two washes with antibody dilution buffer, cells were incubated with 10 μg/ml of PE conjugated anti-human secondary antibodies for 30 min on ice. Following two additional washes, samples were run on a Hypercyt® cytometer and analyzed in ForeCyt™ (IntelliCyt, Albuquerque, N. Mex.). The mean fluorescence intensities (MFI) were expressed as fold change above isotype control levels (background). FACS binding confirmed that Control I selectively bound to 293/hPRLR expressing cells with MFIs that were 30 fold above background (isotype ctrl) levels and less than 2 fold binding on parental cells.
(§2) Next, the anti-PRLR antibodies were tested via FACS for selective binding to the engineered overexpressing PRLR HEK293 cell lines, as well as to non-expressing HEK293 cells and a native PRLR expressing cell line (T47D).

[2] = target: T2, monomeric human PRLR (hPRLR.mmh; SEQ ID NO:401) (Homo sapiens, UniProt P16471); experiment: Surface plasmon resonance (Biacore T200), antibody-capture format; format: binding; conditions: analyte hPRLR.mmh
T2 construct: soluble monomeric (hPRLR.mmh); mmh (myc-myc-hexahistidine) (C)
Procedure: (§3) Antibodies, expressed as human IgG1 Fc (i.e., “H1H” designations), were captured onto an anti-human Fc sensor surface (mAb-capture format), and soluble monomeric (hPRLR.mmh; SEQ ID NO:401, or Macaca fascicularis (mf) PRLR.mmh; SEQ ID NO:403) or dimeric (hPRLR.mFc; SEQ ID NO:402) PRLR protein was injected over the sensor surface. Measurements were conducted on a T200 Biacore instrument. Kinetic association (ka) and dissociation (kd) rate constants were determined by processing and fitting the data to a 1:1 binding model using Scrubber 2.0 curve fitting software.

[3] = target: T3, dimeric human PRLR (hPRLR.mFc; SEQ ID NO:402) (Homo sapiens, UniProt P16471); experiment: as above; format: binding; conditions: analyte hPRLR.mFc
T3 construct: dimeric (hPRLR.mFc)
Procedure: as §3

[4] = tested on: Macaca fascicularis PRLR (mfPRLR.mmh; SEQ ID NO:403); experiment: as above; format: binding; conditions: analyte mfPRLR.mmh
Procedure: as §3

[5] = target: T4, human PRLR on HEK293/hPRLR cells (Homo sapiens, UniProt P16471); experiment: FACS cell surface binding
T4 construct: HA; expressed in transfected cells; host or cells: HEK293
T4 sequence (P16471 25-622): T1 sequence (P16471 25-622)
Procedure: (§4) The ability of anti-PRLR antibodies to selectively bind PRLR expressing cell lines was next determined. Human, monkey Macaca fascicularis, and mouse PRLR constructs with an HA tag were stably introduced into HEK293 cells via Lipofectamine 2000-mediated transfection methodology. Transfectants (HEK293/hPRLR, HEK293/mfPRLR and HEK293/mPRLR) were selected for at least 2 weeks in complete growth media plus G418.
as §1, §2

[6] = target: T5, mouse PRLR on HEK293/mPRLR cells (Mus musculus, UniProt Q08501); experiment: FACS cell surface binding
T5 construct: HA; expressed in transfected cells; host or cells: HEK293
T5 sequence (Q08501 20-608): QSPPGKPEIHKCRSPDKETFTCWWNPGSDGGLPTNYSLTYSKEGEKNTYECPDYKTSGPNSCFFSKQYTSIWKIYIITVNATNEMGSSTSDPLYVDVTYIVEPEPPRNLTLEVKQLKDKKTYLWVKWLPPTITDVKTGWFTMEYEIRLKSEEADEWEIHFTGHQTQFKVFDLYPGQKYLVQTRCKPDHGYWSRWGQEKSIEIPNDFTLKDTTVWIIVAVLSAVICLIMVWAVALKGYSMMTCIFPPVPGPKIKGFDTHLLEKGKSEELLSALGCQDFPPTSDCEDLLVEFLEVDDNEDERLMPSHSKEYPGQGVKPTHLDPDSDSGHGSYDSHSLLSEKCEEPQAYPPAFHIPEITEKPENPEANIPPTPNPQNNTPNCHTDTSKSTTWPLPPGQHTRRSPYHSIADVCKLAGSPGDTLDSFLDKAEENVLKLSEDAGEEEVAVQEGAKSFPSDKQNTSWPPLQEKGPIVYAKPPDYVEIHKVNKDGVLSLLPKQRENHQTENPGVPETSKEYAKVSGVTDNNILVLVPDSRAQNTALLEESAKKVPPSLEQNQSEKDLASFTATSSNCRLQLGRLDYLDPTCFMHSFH
Procedure: as §4, §1, §2

[7] = target: T6, monkey PRLR on HEK293/mfPRLR cells (Macaca fascicularis, UniProt A0A2K5WXK1); experiment: FACS cell surface binding
T6 construct: HA; expressed in transfected cells; host or cells: HEK293
T6 sequence (A0A2K5WXK1 25-619): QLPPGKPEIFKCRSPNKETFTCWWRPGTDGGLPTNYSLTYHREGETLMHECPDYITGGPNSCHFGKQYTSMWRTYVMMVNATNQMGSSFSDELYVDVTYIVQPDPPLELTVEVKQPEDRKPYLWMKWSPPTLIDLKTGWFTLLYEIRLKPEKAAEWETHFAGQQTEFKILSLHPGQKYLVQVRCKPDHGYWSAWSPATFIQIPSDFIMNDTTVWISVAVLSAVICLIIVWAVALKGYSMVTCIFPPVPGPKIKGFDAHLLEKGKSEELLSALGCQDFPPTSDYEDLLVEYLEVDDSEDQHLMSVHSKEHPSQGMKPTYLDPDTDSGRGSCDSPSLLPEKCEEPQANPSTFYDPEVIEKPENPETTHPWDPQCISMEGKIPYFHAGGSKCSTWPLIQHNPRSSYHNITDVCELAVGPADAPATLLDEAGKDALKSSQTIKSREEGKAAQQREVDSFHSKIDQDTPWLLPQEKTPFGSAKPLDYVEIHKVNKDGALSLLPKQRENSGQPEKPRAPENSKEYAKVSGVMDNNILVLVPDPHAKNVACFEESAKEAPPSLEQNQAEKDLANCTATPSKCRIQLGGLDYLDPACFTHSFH
Procedure: as §4, §1, §2

[8] = tested on: HEK293 parental cells; experiment: FACS cell surface binding; design: species or system human
Procedure: as §4, §1, §2

Chain of Macaca fascicularis PRLR (mfPRLR.mmh; SEQ ID NO:403) (as listed by the source): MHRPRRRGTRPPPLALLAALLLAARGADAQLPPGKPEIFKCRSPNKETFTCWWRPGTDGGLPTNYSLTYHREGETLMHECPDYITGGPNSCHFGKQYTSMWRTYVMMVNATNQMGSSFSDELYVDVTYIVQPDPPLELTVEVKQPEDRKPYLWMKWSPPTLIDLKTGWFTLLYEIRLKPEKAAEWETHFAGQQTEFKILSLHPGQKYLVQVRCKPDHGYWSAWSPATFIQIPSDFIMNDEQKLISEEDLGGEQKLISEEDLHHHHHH
T2 sequence (P16471 with tags, fused parts or gaps): as the sequence (as listed by the source) above, with V105I, T139A, M154I, T187I, I236T counted along it
T3 sequence (P16471 with tags, fused parts or gaps): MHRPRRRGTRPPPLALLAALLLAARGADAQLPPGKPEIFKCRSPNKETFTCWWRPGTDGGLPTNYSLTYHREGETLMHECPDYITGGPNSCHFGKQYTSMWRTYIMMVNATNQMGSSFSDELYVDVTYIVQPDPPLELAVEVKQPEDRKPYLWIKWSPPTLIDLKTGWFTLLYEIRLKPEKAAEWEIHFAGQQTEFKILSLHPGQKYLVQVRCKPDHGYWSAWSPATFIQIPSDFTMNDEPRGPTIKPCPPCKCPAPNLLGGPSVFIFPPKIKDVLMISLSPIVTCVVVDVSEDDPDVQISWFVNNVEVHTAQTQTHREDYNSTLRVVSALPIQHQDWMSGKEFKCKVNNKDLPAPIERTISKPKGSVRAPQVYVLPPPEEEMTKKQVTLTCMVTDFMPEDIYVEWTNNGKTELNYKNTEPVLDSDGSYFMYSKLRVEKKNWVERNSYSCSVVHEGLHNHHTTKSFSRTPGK

FACS Cell Binding [1]: 31 Fold Above Background
ka ([2]; 25° C.): 852000 M/s
kd ([2]; 25° C.): 0.000257 s⁻¹
ka ([2]; 37° C.): 1.58e+06 M/s
kd ([2]; 37° C.): 0.00096 s⁻¹
ka ([3]; 25° C.): 931000 M/s
kd ([3]; 25° C.): 4.08e-05 s⁻¹
ka ([3]; 37° C.): 1.88e+06 M/s
kd ([3]; 37° C.): 0.000127 s⁻¹
kd ([4]; 25° C.): 0.000325 s⁻¹
kd ([4]; 37° C.): 0.0012 s⁻¹
FACS Cell Binding [5]: 29 Fold Above Background
FACS Cell Binding [6]: 1 Fold Above Background
FACS Cell Binding [7]: 18 Fold Above Background
B1: H1H6966N: anti-PRLR antibody, human IgG1 Fc form of H2M6966N of Table 1; HCVR/LCVR SEQ ID NOs 338/346 (antibody, V domains shown)
VH: QVQLVQSGAEVQKPGASVKVSCKVSGYTLTALSIHWVRQAPGKGLEWMGNFDPGDGETIHAQKFQGRVTMTGDTSTDTAYMELSSLRSEDTAVYYCVGVTFDYWGQGTLVTVSS
VL: EIVMTQSPATLSVSPGERATLSCRASQSVASNLAWYQQKPGQAPRLLLYGASTRATGIPARFSGSGSGTEFTLTISSLQSEDFALYYCQHYNNWPLTFGGGTKVEIK
modifications: human IgG1 Fc
ka ([4]; 25° C.): 782000 M/s
ka ([4]; 37° C.): 1.22e+06 M/s
FACS Cell Binding [8]: 1 Fold Above Background

FACS Cell Binding [1]: 41 Fold Above Background
ka ([2]; 25° C.): 246000 M/s
kd ([2]; 25° C.): 0.000332 s⁻¹
ka ([2]; 37° C.): 424000 M/s
kd ([2]; 37° C.): 0.000933 s⁻¹
ka ([3]; 25° C.): 407000 M/s
kd ([3]; 25° C.): 4.45e-05 s⁻¹
ka ([3]; 37° C.): 907000 M/s
kd ([3]; 37° C.): 9.73e-05 s⁻¹
kd ([4]; 25° C.): 0.000585 s⁻¹
kd ([4]; 37° C.): 0.00162 s⁻¹
FACS Cell Binding [5]: 38 Fold Above Background
FACS Cell Binding [6]: 2 Fold Above Background
FACS Cell Binding [7]: 28 Fold Above Background
B2: H1H6967N: anti-PRLR antibody, human IgG1 Fc form of H2M6967N of Table 1; HCVR/LCVR SEQ ID NOs 354/362 (antibody, V domains shown)
VH: EVQLVESGGDLVHPGRSLRLSCAASGFPFDEYAMHWVRQVPGKGLEWVSGISWSNNNIGYADSVKGRFTISRDNAKNSLYLQMNSLRPEDTAFYYCAKSGIFDSWGQGTLVTVSS
VL: B1 VL with A30S, S31R, N32D, L48I, Y49H, T69A, T74I, L85V, H90Q
modifications: human IgG1 Fc
ka ([4]; 25° C.): 190000 M/s
ka ([4]; 37° C.): 356000 M/s
FACS Cell Binding [8]: 1 Fold Above Background

FACS Cell Binding [1]: 9 Fold Above Background
ka ([2]; 25° C.): 179000 M/s
kd ([2]; 25° C.): 0.036 s⁻¹
ka ([2]; 37° C.): 40600 M/s
kd ([2]; 37° C.): 0.0277 s⁻¹
ka ([3]; 25° C.): 359000 M/s
kd ([3]; 25° C.): 0.000518 s⁻¹
ka ([3]; 37° C.): 509000 M/s
kd ([3]; 37° C.): 0.0023 s⁻¹
kd ([4]; 25° C.): 0.0167 s⁻¹
kd ([4]; 37° C.): 0.0165 s⁻¹
FACS Cell Binding [5]: 6 Fold Above Background
FACS Cell Binding [6]: 2 Fold Above Background
FACS Cell Binding [7]: 11 Fold Above Background
B3: H1H6959N2: anti-PRLR antibody, human IgG1 Fc form of H2M6959N2 of Table 1; HCVR/LCVR SEQ ID NOs 306/314 (antibody, V domains shown)
VH: EVQLVESGGGLVQPGRSLRLSCAASGFTFDDYAMHWVRQAPGKGLEWVSGISWHSGIIGYADSVKGRFTISRDNAKNSLYLQMNSLRTEDAALYYCAKIGSYFYFDSWGQGTLVTVSS
VL: EIVLTQSPGTLSLSPGERATLSCRASQSVSSNYLAWYQQKPGQAPRLLIYGASSRATGIPDRFSGSGSGTDFTLTISRLEPEDFAVYYCQQFGSSGYTFGQGTNLEIK
ka ([4]; 25° C.): 129000 M/s
ka ([4]; 37° C.): 44600 M/s
FACS Cell Binding [8]: 1 Fold Above Background

FACS Cell Binding [1]: 33 Fold Above Background
ka ([2]; 25° C.): 108000 M/s
kd ([2]; 25° C.): 0.000729 s⁻¹
ka ([2]; 37° C.): 122000 M/s
kd ([2]; 37° C.): 0.00198 s⁻¹
ka ([3]; 25° C.): 252000 M/s
kd ([3]; 25° C.): 3.56e-05 s⁻¹
ka ([3]; 37° C.): 294000 M/s
kd ([3]; 37° C.): 0.000147 s⁻¹
kd ([4]; 25° C.): 0.000583 s⁻¹
kd ([4]; 37° C.): 0.00128 s⁻¹
FACS Cell Binding [5]: 29 Fold Above Background
FACS Cell Binding [6]: 1 Fold Above Background
FACS Cell Binding [7]: 23 Fold Above Background
B4: H1H6960N: anti-PRLR antibody, human IgG1 Fc form of H2M6960N of Table 1; HCVR/LCVR SEQ ID NOs 322/330 (antibody, V domains shown)
VH: EVQLVESGGGLVKPGGSLRLSCAASGITFSSYSMNWVRQAPGKGLEWVSSISTRSSLIHYADSVKGRFTISRDNAKNSLYLQMNSLRDEDTAVYYCARWDAAAAFDYWGQGTLVIVSS
VL: DIQLTQSPSFLSASVGDRVTITCWASQGISSYLAWYQQKPGKAPKLLIYVASTLQSGVPSRFSGSGSGTEFTLTISSLQPEDFATYFCQQLNSYPLTFGGGTKVEIK
modifications: human IgG1 Fc
ka ([4]; 25° C.): 94000 M/s
ka ([4]; 37° C.): 86400 M/s
FACS Cell Binding [8]: 1 Fold Above Background

Source: patent US10925971B2, “Methods of treating PRLR positive breast cancer” (Regeneron Pharmaceuticals, Inc., priority 2016, dated 2021)
